Results: US20170015742A1 (published 2017)
Where a chain is given by its changes, count along the chain named.

B1: hBEW-1E3.1 (antibody, V domains shown)
VH: EIQLVQSGSELKKPGASVKVSCKASGYPFTNSGMYWVKQAPGQGLEYMGWINTEAGKPTYADDFKGRFVFSLDTSVSTAYLQISSLKAEDTAVYFCARWGYISDNSYGWFDYWGQGTLVTVSS
VL: ETVLTQSPATLSLSPGERATLSCRASEGVYSYMHWYQQKPGQQPRLLIYKASNLASGVPARFSGSGSGTDFTLTISSLEPEDFAVYFCHQNWNDPLTFGQGTKLEIK
notes: Humanized IgG
B2: hBEW-1E3.4 (antibody, V domains shown)
VH: B1 VH
VL: ATQLTQSPSSLSASVGDRVTISCRASEGVYSYMHWYQQKPGKQPKLLIYKASNLASGVPSRFSGSGSGTDFTLTISSLQPEDFATYFCHQNWNDPLTFGQGTKLEIK
notes: Humanized IgG
B3: hBEW-1E3.2 (antibody, V domains shown)
VH: B1 VH with S9A, L11V, V69T, S71T, V76T, Q82E, S84R, K87R, A88S, E89D
VL: B1 VL
notes: Humanized IgG
B4: hBEW-1E3.5 (antibody, V domains shown)
VH: B1 VH with S9A, L11V, V69T, S71T, V76T, Q82E, S84R, K87R, A88S, E89D
VL: B2 VL
notes: Humanized IgG
B5: 4G8.3-SL-9E8.4 anti-VEGF-A/anti-PDGF-BB DVD-Ig (PR-1564012) (bispecific antibody, human IgG1, kappa, L234A L235A)
heavy: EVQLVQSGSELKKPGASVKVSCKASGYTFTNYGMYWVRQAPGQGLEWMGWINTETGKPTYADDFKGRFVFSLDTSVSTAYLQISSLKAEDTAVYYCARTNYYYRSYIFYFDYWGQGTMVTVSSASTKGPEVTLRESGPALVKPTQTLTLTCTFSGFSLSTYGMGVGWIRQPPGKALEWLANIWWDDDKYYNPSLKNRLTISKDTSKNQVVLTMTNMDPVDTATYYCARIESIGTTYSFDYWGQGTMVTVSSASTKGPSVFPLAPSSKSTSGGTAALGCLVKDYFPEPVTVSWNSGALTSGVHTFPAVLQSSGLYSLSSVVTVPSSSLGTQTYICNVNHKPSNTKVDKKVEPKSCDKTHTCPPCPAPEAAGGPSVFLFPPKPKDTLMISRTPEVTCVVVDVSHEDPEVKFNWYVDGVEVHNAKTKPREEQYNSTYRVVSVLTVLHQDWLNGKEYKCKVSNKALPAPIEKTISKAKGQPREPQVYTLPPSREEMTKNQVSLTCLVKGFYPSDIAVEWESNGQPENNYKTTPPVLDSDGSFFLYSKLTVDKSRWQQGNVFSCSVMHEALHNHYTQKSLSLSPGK
light: DTVLTQSPATLSLSPGERATLSCRASESVSTHMHWYQQKPGQAPRLLIYGASNLESGVPARFSGSGSGTDFTLTISSLEPEDFAVYFCQQSWNDPFTFGQGTKLEIKRTVAAPSVFIFPPEFVLTQSPGTLSLSPGERATLSCERSSGDIGDSYVSWYQQKPGQAPRLVIYADDQRPSGIPDRFSGSGSGTDFTLTISRLEPEDFAVYYCQSYDINIDIVFGGGTKVEIKGTVAAPSVFIFPPSDEQLKSGTASVVCLLNNFYPREAKVQWKVDNALQSGNSQESVTEQDSKDSTYSLSSTLTLSKADYEKHKVYACEVTHQGLSSPVTKSFNRGEC
B6: 4G8.3-LS-9E8.4 anti-VEGF-A/anti-PDGF-BB DVD-Ig (PR-1564013) (bispecific antibody, human IgG1, kappa, L234A L235A)
heavy: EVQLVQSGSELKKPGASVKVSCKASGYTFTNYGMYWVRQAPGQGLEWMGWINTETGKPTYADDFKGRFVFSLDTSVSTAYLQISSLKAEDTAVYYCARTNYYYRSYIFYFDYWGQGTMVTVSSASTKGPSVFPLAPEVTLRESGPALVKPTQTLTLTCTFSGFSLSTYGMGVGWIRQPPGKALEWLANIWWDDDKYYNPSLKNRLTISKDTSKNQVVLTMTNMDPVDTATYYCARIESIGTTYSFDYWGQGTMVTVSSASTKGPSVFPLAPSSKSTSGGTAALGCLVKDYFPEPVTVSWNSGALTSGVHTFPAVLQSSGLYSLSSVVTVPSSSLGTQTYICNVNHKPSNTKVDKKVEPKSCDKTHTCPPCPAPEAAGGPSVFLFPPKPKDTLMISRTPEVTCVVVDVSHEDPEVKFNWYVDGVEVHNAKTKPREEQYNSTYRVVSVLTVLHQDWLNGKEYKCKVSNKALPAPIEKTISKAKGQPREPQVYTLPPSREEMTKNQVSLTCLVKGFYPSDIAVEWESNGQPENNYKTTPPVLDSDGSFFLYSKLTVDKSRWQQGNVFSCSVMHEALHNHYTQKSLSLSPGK
light: DTVLTQSPATLSLSPGERATLSCRASESVSTHMHWYQQKPGQAPRLLIYGASNLESGVPARFSGSGSGTDFTLTISSLEPEDFAVYFCQQSWNDPFTFGQGTKLEIKRTVAAPEFVLTQSPGTLSLSPGERATLSCERSSGDIGDSYVSWYQQKPGQAPRLVIYADDQRPSGIPDRFSGSGSGTDFTLTISRLEPEDFAVYYCQSYDINIDIVFGGGTKVEIKGTVAAPSVFIFPPSDEQLKSGTASVVCLLNNFYPREAKVQWKVDNALQSGNSQESVTEQDSKDSTYSLSSTLTLSKADYEKHKVYACEVTHQGLSSPVTKSFNRGEC
B7: 4G8.3-GS-9E8.4 anti-VEGF-A/anti-PDGF-BB DVD-Ig (PR-1564010) (bispecific antibody, human IgG1, kappa, L234A L235A)
heavy: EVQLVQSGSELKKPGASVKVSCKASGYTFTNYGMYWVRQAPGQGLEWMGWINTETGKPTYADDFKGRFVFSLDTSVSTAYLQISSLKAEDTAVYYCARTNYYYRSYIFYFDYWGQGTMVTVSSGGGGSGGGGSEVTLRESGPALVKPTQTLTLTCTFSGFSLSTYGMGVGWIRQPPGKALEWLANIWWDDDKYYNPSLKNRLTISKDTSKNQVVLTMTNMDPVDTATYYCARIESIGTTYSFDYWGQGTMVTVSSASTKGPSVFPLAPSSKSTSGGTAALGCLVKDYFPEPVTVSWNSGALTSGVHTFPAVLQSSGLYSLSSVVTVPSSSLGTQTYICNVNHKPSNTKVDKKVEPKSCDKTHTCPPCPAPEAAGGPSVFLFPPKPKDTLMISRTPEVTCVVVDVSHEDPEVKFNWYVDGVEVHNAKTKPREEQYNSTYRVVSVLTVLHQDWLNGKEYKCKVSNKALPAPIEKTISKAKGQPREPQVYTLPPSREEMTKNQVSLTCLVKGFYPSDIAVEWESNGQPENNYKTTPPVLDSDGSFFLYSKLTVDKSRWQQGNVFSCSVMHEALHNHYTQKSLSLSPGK
light: DTVLTQSPATLSLSPGERATLSCRASESVSTHMHWYQQKPGQAPRLLIYGASNLESGVPARFSGSGSGTDFTLTISSLEPEDFAVYFCQQSWNDPFTFGQGTKLEIKRGGSGGGGSGEFVLTQSPGTLSLSPGERATLSCERSSGDIGDSYVSWYQQKPGQAPRLVIYADDQRPSGIPDRFSGSGSGTDFTLTISRLEPEDFAVYYCQSYDINIDIVFGGGTKVEIKGTVAAPSVFIFPPSDEQLKSGTASVVCLLNNFYPREAKVQWKVDNALQSGNSQESVTEQDSKDSTYSLSSTLTLSKADYEKHKVYACEVTHQGLSSPVTKSFNRGEC
B8: BEW-8E6-E4 (antibody, IgG2a, V domains shown)
VH: QIQLVQSGPELKKPGESVKISCKASGYTFTDYAMHWVKQAPGKVLKWMGWINTFTGKPTYIDDFKGRFVFSLEASASTANLQISDLKNEDTATYFCARGNYYSGYWYFDFWGPGTMVTMSS
VL: DIQMTQSPASLSASLGETISIECRASEDISSNLAWYQQKSGKSPQLLIFAANRLQDGVPSRFSGSGSGTQFSLKISGMQPEDEGDYFCLQGSKFYTFGAGTKLELK
notes: Rat hybridoma antibody, isotype IgG2a/kappa
B9: BEW-10H2-B9 (antibody, IgG2b, V domains shown)
VH: QIQLVQSGPELKKPGESVKISCKASGYSFTNFGLYWVKQAPGQGLQYMGWIDTETGKPTYADDFRGRFVFFLETSASTAYLQINNLKNEDMATYFCARVYGYPSWYFDFWGPGTMVTVSS
VL: DIQMTQSPASLSTSLEEIVTITCQASQDIDNYLSWYQQKPGKSPQLLIHSATSLADGVPSRFSGSRSGTQFSLKIHRLQVEDTGIYYCLQHFFPPWTFGGGTKLELK
notes: Rat hybridoma antibody, isotype IgG2b/kappa
B10: BEW-9A8-E2 (antibody, IgG2a, V domains shown)
VH: QIQLVQSGPELKKPGESVKISCKASGYTFTNYGMYWVKQAPGQGLQYMGWINTETGKPIYADDFKGRFVFFLETSASTAYLQINNLKNEDMATFFCARVDYDGSFWFAYWGQGTLVTVSS
VL: DTVLTQSPALAVSPGERVSISCRASESVSTVIHWYQQKPGQQPKLLIHGASNLESGVPARFSGSGSGTDFTLTIDPVEADDTATYFCQQHWNDPPTFGAGTKLEMK
notes: as for B8
B11: BEW-6C2-C8 (antibody, IgG2b, V domains shown)
VH: EVQLVESGGGLVQPGSSLKLSCAASGFTFSYYGMHWIRQAPKKGLEWMALIYYDSSKMYYADSVKGRFTISRDNSKNTLYLEMNSLRSEDTAMYYCAAGGTAPVYWGQGVMVTVSS
VL: NIQLTQSPSLLSASVGDRVTLSCKGSQNIANYLAWYQQKLGEAPKLLIYNTDSLQTGIPSRFSGSGSGTDYTLTISSLQPEDVATYFCYQSNNGYTFGAGTKLELR
notes: as for B9
B12: BEW-5C3-E7 (antibody, IgG2b, V domains shown)
VH: QIQLVQSGPELKKPGESVKISCKASGYTFTNYGVYWVKQAPGQGLQYMGWINTETGKPTYADDFKGRFVFFLETSTNTAYLQINNLKNEDMATFFCARARQLDWFVYWGQGTLVTVSS
VL: DTVLTQSPALTVSPGERVSISCRARESLTTSLCWFQQKPGQQPKLLIYGASKLESGVPARFSGSGSGTDFTLTIDPVEADDTATYFCQQSWYDPPTFGGGTKLELK
notes: as for B9
B13: BEW-9E10-E7 (antibody, IgG2a, V domains shown)
VH: QIQLLQSGPELKKPGESVKISCKASGYTFTNYGMYWVKQAPGQGLQYMGWIDTETGRPTYADDFKGRFVFFLETSASTAYLQINNLKNEDMATYFCARWSGDTTGIRGPWFAYWGQGTLVTVSS
VL: DIRMTQSPASLSASLGETVNIECLASEDIYSDLAWYQQKPGRSPQLLIYNANGLQNGVPSRFGGSGSGTQYSLKINSLQSEDVATYFCQQYNYFPGTFGAGTKLELK
notes: as for B8
B14: BEW-1E3-D6 (antibody, IgG2b, V domains shown)
VH: QIQLVQSGPELKKPGESVKISCKASGYPFTNSGMYWVKQAPGQGLQYMGWINTEAGKPTYADDFKGRFVFFLETSASTAYLQINNLKNEDMATYFCARWGYISDNSYGWFDYWGQGTLVTVSS
VL: DTVLTQSPALAVSPGERVSISCRASEGVYSYMHWYQQNPGQQPKLLIYKASNLASGVPARFSGSGSGTDFTLTIDPVEADDTATYFCHQNWNDPLTFGSGTKLEIK
notes: as for B9
B15: BEW-9E3-B9 (antibody, IgG2a, V domains shown)
VH: QIQLVQSGPELKKPGESVKISCKASGYTFTNYGMYWVKQAPGQGLQYMGWINTETGKPTYADDFKGRFVFFLETSASTAFLQINNLKNEDMATYFCARPSDYYDGFWFPYWGQGALVTVSS
VL: B14 VL with V3I, V18I, Y29N, H88Q, N90S
notes: as for B8

What follows are binders tested against T1, Human VEGF-A 165 (human, UniProt P15692 207-395) (assay: cell-based or functional assay).
T1 sequence (P15692 other isoform, or with tags, fused parts or gaps limits assumed): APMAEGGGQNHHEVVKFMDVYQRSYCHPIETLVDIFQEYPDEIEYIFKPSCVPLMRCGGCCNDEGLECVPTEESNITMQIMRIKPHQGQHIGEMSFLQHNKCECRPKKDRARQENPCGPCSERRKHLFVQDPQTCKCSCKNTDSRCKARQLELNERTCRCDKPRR

| Binder | hVEGF165 IC50 (nM), HMVEC-d proliferation [nM] |
| --- | --- |
| B1 | 0.138 |
| B2 | 0.212 |
| B3 | 0.161 |
| B4 | 0.184 |

The binders below were run against recombinant murine PDGF-BB (mouse, UniProt P31240 82-190) (assay: cell-based or functional assay).
Sequence of recombinant murine PDGF-BB (P31240 82-190 limits assumed): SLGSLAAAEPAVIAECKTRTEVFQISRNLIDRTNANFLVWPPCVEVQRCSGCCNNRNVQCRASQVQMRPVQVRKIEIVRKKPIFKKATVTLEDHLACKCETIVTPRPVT

| Binder | Potency IC50 (nM) mPDGF-BB (NIH-3T3 proliferation) [nM] |
| --- | --- |
| B5 | 0.29 |
| B6 | 0.11 |
| B7 | 0.44 |

What follows are binders tested against recombinant rat PDGF-BB (rat, UniProt Q05028 74-182) (assay: cell-based or functional assay).
Sequence of recombinant rat PDGF-BB (Q05028 74-182 limits assumed): as the sequence (P31240 82-190 limits assumed) above, with I83V, I102V counted along it

| Binder | Potency IC50 (nM) ratPDGF-BB (NIH-3T3 proliferation) [nM] |
| --- | --- |
| B5 | 0.65 |
| B6 | 0.21 |
| B7 | 1.36 |

Each binder was assayed against T2, Human VEGF-A 165 (human, UniProt P15692 207-395) (assay: receptor competition ELISA, hVEGF165 binding to coated hVEGF-R2-Fc).
T2 construct: Recombinant; also called huVEGF-A165; hVEGF165
Protocol: To identify molecules that could block the binding of hVEGF₁₆₅ to the hVEGF-R2 (KDR/Flk-1) receptor, a competition ELISA was performed. […] Plates were then washed four times with wash buffer (TBS, 0.05% Tween-20) and blocked with Superblock blocking buffer (Thermo Scientific, cat#37535). […] The pre-incubated sample/hVEGF₁₆₅ complex was added to the coated plate at 50 μL in duplicate and incubated for 30 minutes at 25° C. with shaking. Following incubation, plates were washed four times with wash buffer. Streptavidin-polyHRP-40 (Fitzgerald cal#65r-s104phrp) was diluted in assay diluent (10% Superblock containing 0.05% surfactamps) and added to plates (50 μL) for 45 minutes at 25° C. with shaking. Plates were washed four times with wash buffer and developed with the addition of Enhanced K-blue TMB substrate (Neogen cat#308177). The reaction was stopped with 2N sulfuric acid (VWR, cat# BDH3500-1) and the absorbance was read at 450 nm-570 nm. A decrease in observed optical density indicates the test molecule is blocking the hVEGF₁₆₅ binding to the hVEGF-R2-Fc. Data was analyzed using Softmax Pro 4.8 software and IC₅₀ values calculated using a sigmoidal dose response (variable slope) fit in GraphPad Prism 5.
Anti-VEGF-A antibodies derived from rat hybridomas were characterized for binding, function and cross-reactivity in a panel of assays. Supernatants were tested for the ability to bind hVEGF₁₆₅ (Example 1.3) and block binding of hVEGF₁₆₅ to hVEGFR2 in a competition ELISA format (Example 1.4).
T2 sequence (P15692 other isoform, or with tags, fused parts or gaps limits assumed): as the sequence (P15692 other isoform, or with tags, fused parts or gaps limits assumed) above

| Binder | IC50 [pM] |
| --- | --- |
| B8 | 342 |
| B9 | 420 |
| B10 | 249 |
| B11 | 197 |
| B12 | 156 |
| B13 | 274 |
| B14 | 620 |
| B15 | 124 |

The binders below were run against T1, Human VEGF-A 165 (assay: SPR (Biacore), antibody captured via anti-human Fc, antigen in solution).
Protocol: For example, approximately 9000 RU of goat anti-human Fc specific polyclonal antibody (Thermo Fisher Scientific Inc., Rockford, Ill.) diluted in 10 mM sodium acetate (pH 4.5) is directly immobilized across a CM5 research grade biosensor chip using a standard amine coupling kit according to manufacturer's instructions and procedures at 25 μg/ml. Unreacted moieties on the biosensor surface were blocked with ethanolamine. For kinetic analysis, rate equations derived from the 1:1 Langmuir binding model were fitted simultaneously to multiple antigen injections (using global fit analysis) with the use of Scrubber 2 (BioLogic Software), Biacore Biaevaluation 4.0.1 software or Biacore T100 Evaluation software. Purified antibodies or DVD-Ig molecules were diluted in running buffer for capture across goat anti-human Fc reaction surfaces. Antibodies or DVD-Ig molecules to be captured as a ligand (1 μg/ml) were injected over reaction matrices at a flow rate of 10 μl/minute. During the assay, all measurements were referenced against the capture surface alone (i.e., with no captured antibody or DVD-Ig molecule). […] The equilibrium dissociation constant KD (M) of the reaction between antibodies and the target antigen was then calculated from the kinetic rate constants by the following formula: KD=Koff/Kₒₙ. Binding was recorded as a function of time and kinetic rate constants were calculated.

| Binder | Kd [pM] | kon [M⁻¹ s⁻¹] |
| --- | --- | --- |
| B1 | 7.7 | 1.1e+07 |
| B2 | 9.7 | 9.8e+06 |
| B3 | 9.2 | 1.1e+07 |
| B4 | 10 | 1e+07 |
